Experiment [1] concerns the target Src homology 3 domain binding protein 5 (SH3BP5 or SAB), ectopically expressed from pLOC:Sab (UniProt O60239). The experiment in a line: cell-based or functional assay.
Experiment [2] has as its target Sab:KIM1/2 L-A (MAPK/JNK-binding deficient mutant of Sab, pLOC:Sab:KIM1/2 L-A) (UniProt O60239). The experiment in a line: cell-based or functional assay.

Src homology 3 domain binding protein 5 (SH3BP5 or SAB), ectopically expressed from pLOC:Sab, sequence (O60239 whole entry): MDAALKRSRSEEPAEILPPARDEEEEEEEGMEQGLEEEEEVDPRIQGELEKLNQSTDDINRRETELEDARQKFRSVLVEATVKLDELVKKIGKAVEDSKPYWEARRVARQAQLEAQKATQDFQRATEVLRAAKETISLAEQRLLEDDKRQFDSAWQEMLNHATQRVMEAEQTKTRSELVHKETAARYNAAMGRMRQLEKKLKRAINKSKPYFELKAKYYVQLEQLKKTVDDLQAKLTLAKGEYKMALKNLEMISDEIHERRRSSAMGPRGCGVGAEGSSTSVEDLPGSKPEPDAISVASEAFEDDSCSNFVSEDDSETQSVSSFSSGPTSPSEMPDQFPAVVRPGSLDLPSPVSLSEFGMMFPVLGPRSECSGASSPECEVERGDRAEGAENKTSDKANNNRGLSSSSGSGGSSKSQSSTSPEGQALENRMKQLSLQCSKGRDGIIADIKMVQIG
Sab:KIM1/2 L-A (MAPK/JNK-binding deficient mutant of Sab, pLOC:Sab:KIM1/2 L-A), sequence (O60239 other isoform, or with tags, fused parts or gaps mutant limits assumed): as the sequence (O60239 whole entry) above, with L347A, L349A, L434A, L436A counted along it

Regarding c-Jun N-terminal Kinase (JNK) (enzyme), in experiment [1], the Cisplatin IC50 (nM), HeLa cells with ectopic expression, TO-PRO-3 staining was found to be 0.42 nM; the Paclitaxel IC50 (µM), HeLa cells with ectopic expression, TO-PRO-3 staining was 4.7 µM; the fold decrease in the IC50 of paclitaxel in HeLa cells against untreated, mock-transfected or RFP-expressing cells was 5 fold. In experiment [2], this substance displayed a Cisplatin IC50 (nM), HeLa cells with ectopic expression, TO-PRO-3 staining of 3.1 nM and a Paclitaxel IC50 (µM), HeLa cells with ectopic expression, TO-PRO-3 staining of 13.8 µM.

Source of the values: patent US20180080944A1.
